In article PMC8096068, “The canonical α-SNAP is essential for gametophytic development in Arabidopsis” (PLoS Genetics, 2021):

Target: T1, His-NSF (Arabidopsis, UniProt Q9M0Y8 1-742)
T1 construct: Arabidopsis thaliana N-ethylmaleimide-sensitive factor (NSF), At4g04910; also called NSF-His; his-tagged NSF
T1 sequence (looked up): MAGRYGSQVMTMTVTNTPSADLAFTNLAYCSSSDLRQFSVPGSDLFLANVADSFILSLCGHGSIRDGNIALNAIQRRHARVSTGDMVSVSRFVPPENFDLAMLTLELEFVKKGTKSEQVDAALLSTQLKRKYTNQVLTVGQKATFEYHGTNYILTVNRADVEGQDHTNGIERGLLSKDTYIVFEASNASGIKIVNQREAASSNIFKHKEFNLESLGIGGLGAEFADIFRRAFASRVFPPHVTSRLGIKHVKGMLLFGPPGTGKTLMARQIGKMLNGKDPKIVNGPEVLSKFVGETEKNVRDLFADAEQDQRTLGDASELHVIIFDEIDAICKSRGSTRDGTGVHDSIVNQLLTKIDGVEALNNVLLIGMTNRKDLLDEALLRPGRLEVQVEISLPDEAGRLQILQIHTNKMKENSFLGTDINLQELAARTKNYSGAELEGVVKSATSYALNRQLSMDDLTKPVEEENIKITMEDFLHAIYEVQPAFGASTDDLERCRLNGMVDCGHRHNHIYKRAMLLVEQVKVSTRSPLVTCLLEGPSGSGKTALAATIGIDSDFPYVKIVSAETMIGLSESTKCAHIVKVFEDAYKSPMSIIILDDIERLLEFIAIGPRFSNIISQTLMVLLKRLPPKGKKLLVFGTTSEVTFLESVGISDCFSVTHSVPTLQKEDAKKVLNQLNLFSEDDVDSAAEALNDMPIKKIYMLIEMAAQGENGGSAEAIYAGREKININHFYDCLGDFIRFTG
Assay: pull-down; in vitro pull-down; NSF-His used to pull down ASNAP.1-GST or ASNAP.2-GST; recombinant proteins from E. coli, affinity-purified
Conditions: both partners purified

B1: GST-ASNAP.1 (natural protein, Arabidopsis, UniProt Q9SPE6 1-289, looked up)
chain: MGDHLVRAEEFEKKAEKKLNGWGIFGSKYEDAADLLEKAANSYKLAKSWDQAGKAYLKLADCHLKSDSKHDAANAYAEAAKCYKKVDTNEAASCLERAVNIFCEIGRLNMAARYYKEIAEYYESDQKFEQAIAYFEKAAEFFQNEEVTTSANQCNLKVAQYAAQLEQYEKAIKIYEDIARHSLNNNLLKYGVKGHLLTAGMCHLCKADVVSITNALEKYQDLDPTFTGTRECKFLADLASAIDEEDIAKFTDVVKEFDSMTPLDSWKTTMLLRVKEKLKAKELEEDDLT
notes: Arabidopsis thaliana alpha-soluble NSF attachment protein ASNAP, splicing variant ASNAP.1 (At3g56190.1); The only vector named for the pull-down constructs is pET-32a, which is not a GST vector; also called ASNAP.1-GST; α-SNAP.1
binding result: binds
